Laboratory results taken from patent US20230025707A1 (University of Pennsylvania, published 2023).

How the values were obtained:
[1] = target: T1, human α-Synuclein pre-formed fibrils (human, UniProt P37840 1-140); assay: cell-based or functional assay
Lewy body α-Synuclein = Lewy body α-Synuclein (human, UniProt P37840 1-140); assay: IHC, human amygdala; OD of Lewy bodies / OD of tissue
Source text: FIG. 2A: Sections of amygdala tissue containing abundant Lewy body pathology were stained using undiluted or 1:3 diluted hybridoma supernatant. […] FIG. 2B: The optical density within Lewy bodies divided by the optical density of a 1 mm² tissue section containing those Lewy bodies was defined as the Lewy Body Discrimination Index. Antibodies preferentially recognizing Lewy bodies score high on this measure.
In order to rapidly screen for antibody selectivity to pathological α-Synuclein, amygdala sections from PD patients with abundant LB pathology were immunostained. Hybridoma supernatants were used undiluted or at a 1:3 dilution on screening slides processed in parallel to allow direct comparison of immunostaining. […] A value of 1 indicates no discrimination of LBs over normal synaptic neuropil staining.

[2] = target: T1, human α-Synuclein pre-formed fibrils; assay: sandwich ELISA; PFF vs monomer from EC50s, Syn211 as control
Procedure: Fibrils were then sonicated on high for 10 cycles of 30 seconds on, 30 seconds off (Diagenode Biorupter UCD-300 bath sonicator) prior to dilutions. Dilutions were added to each well (30 μL per well) and incubated overnight at 4° C. The plate was washed 4 times with PBST. 30 μL of MJF-R1 (1:3,000, Abcam Cat #ab138501) in Buffer C was added to each well and the plate was incubated for 4 hours at 37° C. After washing with PBST 4 times, 1:10 k diluted goat-anti-rabbit IgG-HRP conjugate (Cell Signaling Technology) was added to the plate and the plate was incubated for 1 hour at 37° C.
This assay retains the conformation of α-Synuclein by allowing binding of α-Synuclein that is in solution to immobilized antibody, and allows a broad range of affinity detection. Antibodies of interest were coated on an ELISA plate and either α-Synuclein monomer or PFF were incubated with the antibodies at increasing α-Synuclein concentrations to determine relative affinity of the antibodies for each form of α-Synuclein.
By fitting the absorbance values with a sigmoid dose curve, EC₅₀ values were calculated for each antibody.

% Inhibition (primary neuron assay) [1] [%]	LB Discrimination Index (Lewy body α-Synuclein)	PFF Preference [2]	Binder
84.3	2.46	133	9047 (antibody, IgG2b, V domains shown) VH: EVQLVESGGGLVKPGGSLKLSCGASGFTFSSFAMSWVRQTPEKRLEWVATISNGGSYTYYPDSVKGRFTISRDNAKNTLYLRMSSLRSEDTALYYCTRRSSTRGFFDYWGPGTTLTVSS VL: QIFLTQSPAIMSASPGEKVTMTCSASSSVTYMYWYQQNPGSSPRLLIYDSSKLASGVPVRFSGSGSGTSYSLTISRMEAEDATTYYCQQWKSYPPTFGTGTKLDLK
-27.9	1.9	93.8	9092 (antibody, IgG1, V domains shown) VH: QVQLQQSGPELVKPGASVRISCKASGYTFTTFYLHWVKQRPGQGLEWIGWIYPVNVKIKYSERFKGKATLTADKSSSTAYMQLGSLTSEDSAVYFCVRGGRGLDYWGQGTTLTVSS VL: NIMMTQSPSSLAVSAGEKVTMSCKSSQSVLYSSNQKNYLAWYQQKPGQSPKMLIYWASFRESGVPDRFTGSGSGTDFTLTISSVQAEDLAVYYCHQYLSLFTFGSGTKLEIK
90.3	1.68	1.31	9005 (antibody, IgG1, V domains shown) VH: EVMLVESGGGLVKSGGSLKLSCAASGFTFSSYAMSWVRQTPEKRLEWVATISTGGGYTYYPDSVKGRFTISRDNAKNTLYLQMSSLRSEDTAMYYCVRRGTARGYFDVWGAGTTVTVSS VL: QIVLTQSPAIMSASPGEKVTMTCSASSSVSYMYWYQQKPESSPRLLIYDTSNLASGVPVRFSGSGSGTSYFLTISRMEAEDAATYYCQQWKTYPPTFGGGTKLEIK
91.3	1.62	2.73	9100 (antibody, IgG2b, V domains shown) VH: EVQLVESGGVLVKPGGSLKLSCAASGFTFSSFAMSWVRQTPEKRLEWVATISNGGSYTYYPDSVKGRFTISRDNAKNTLYLRMSSLRSEDTAMYYCVRRATTRGYFDYWGQGTTLTVSS VL: QIFLTQSPAIMSASPGEKVTMTCSASSSVSYMYWYQQKPGSSPRLLIYDSSKLASGVPVQFSGSGSGTSYSLTISRMEAEDAATYYCQQWRSYPPTFGAGTKLELK
84.3	1.74	1.47	9052 (antibody, IgG2b, V domains shown) VH: EVQLVESGGVLVKPGGSLKLSCAASGFTFSSFAMSWVRQTPEKRLEWVATISNGGSYTYYPDSVKGRFTISRDNAKNTLYLRMSSLRSEDTAMYYCVRRATTRGYFDYWGQGTTLTVSS VL: QIFLTQSPAIMSASPGEKVTMTCSASSSVSYMYWYQQKPGSSPRLLIYDSSKLASGVPVQFSGSGSGTSYSLTISRMEAEDAATYYCQQWRSYPPTFGAGTKLELK
85.3	1.47	5.26	9099 (antibody, IgG2b, V domains shown) VH: EVQLVESGGVLVKPGGSLKLSCAASGFTFSSFAMSWVRQTPEKRLEWVATISNGGSYTYYPDSVKGRFTISRDNAKNTLYLRMSSLRSEDTAMYYCVRRATTRGYFDYWGQGTTLTVSS VL: QIFLTQSPAIMSASPGEKVTMTCSASSSVSYMYWYQQKPGSSPRLLIYDSSKLASGVPVQFSGSGSGTSYSLTISRMEAEDAATYYCQQWRSYPPTFGAGTKLELK
84.7	1.81	1	9021 (antibody, IgG1, V domains shown) VH: EVMMVESGGGLVKPGGSLKLSCAASGFTFSNYAMSWVRQTPEKRLEWVATISTGGGYTYYPDSMKGRFTISRDNAKNTLYLQMSSLRSEDTAMYYCARRGTARGYFDVWGAGTTVTVSS VL: QIVLTQSPAIMSASPGEKVTMTCSASSSVSYMYWYQQKPESSPRLLIYDTSNLASGVPVRFSGSGSGTSYFLTISRMEAEDAATYYCQQWKTYPPTFGGGTKLEIK
86.5	1.78	1.45	9018 (antibody, IgG2b, V domains shown) VH: EVMLVESGGGLVKPGGSLKLSCAASGFTFSSYAMSWVRQTPEKRLEWVATISTGGGYTYYPDSVKGRFTVSRDNAKNTLYLQMSSLRSEDTAMYYCARRGTSRGYFDVWGAGTTVTVSS VL: QIILTQSPAIMSASPGEKVTMTCSASSSVSYMYWYQQKPESSPRLLIYDTSNLASGVPVRFSGSGSGTSYFLTISRMEAEDAATYYCQQWKTYPPTFGGGTRLEIK
85.1	1.3	1.01	9096 (antibody, IgG2b, V domains shown) VH: EVQLVESGGGLVKPGGSLKLSCAASGFTFSGYAMSWVRQTPEKRLEWVATISNGGSYTYYPDSVKGRFTISRDNAKKTLYLQMSSLRSEDTAMYYCTRRAATRGYFDYWGQGTTLTVSS VL: QIVLTQSPAIMSASPGEKVTMTCSASSSVSYMYWYQQKPGSSPRLLIYDTSKLASGVPVRFSGSGSGTSYSLTISRMEAEDAATYYCQQWRSYPPTFGAGTKLELK
79	1.9	2.11e+08	9035 (antibody, IgG2b, V domains shown) VH: EVQLVESGGGLVKPGGSLKLSCGASGFTFSSFAMSWVRQTPEKRLEWVATISNGGSYTYYPDSVQGRFTISRDNAKNTLYLRMSSLRSEDTAMYYCARRSSTRGFFDYWGHGTTLTVSS VL: QIFLTQSPAIMSASPGEKVTMTCSASSSVSYMYWYQQKPGSSPRLLIYDSSKLASGVPVQFSGSGSGTSYSLTISRMEAEDAATYYCQQWRSYPPTFGAGTKLELK
83.8	1.92	0.73	9060 (antibody, IgG1, V domains shown) VH: EVHLVESGGGLVQPKGSLKLSCAASGFTFNTYAMHWVRQAPGKGLEWVARIRNKSNNYATYYADSVKDRFTISRDDSQSMLFLQMDNLKTEDTAIYYCVRGGLSPFDYWGQGTTLTVSS VL: QIVLTQSPAIMSASPGEKVTMTCSASSSVTYMHWYQQKSGTSPKRWIYDTSKLASGVPARFSGSGSGTSYSLTISSMEAEDAATYYCQQWSSNPPTFGGGTKLEIR
79.3	1.89	0.605	9071 (antibody, IgG1, V domains shown) VH: EVHLVESGGGLVQPKGSLKLSCAASGFTFNTYAMHWVRQAPGKGLEWVARIRNKSNNYATYYADSVKDRFTISRDDSQSMLFLQMDNLKTEDTAIYYCVRGGLSPFDYWGQGTTLTVSS VL: QIVLTQSPAIMSASPGEKVTMTCSASSSVTYMHWYQQKSGTSPKRWIYDTSKLASGVPARFSGSGSGTSYSLTISSMEAEDAATYYCQQWSSNPPTFGGGTKLEIR
88.1	1.95	0.855	9064 (antibody, IgG1, V domains shown) VH: EVHLVESGGGLVQPKGSLKLSCAASGFTFNTYAMHWVRQAPGKGLEWVARIRNKSNNYATYYADSVKDRFTISRDDSQSMLFLQMDNLKTEDTAIYYCVRGGLSPFDYWGQGTTLTVSS VL: QIVLTQSPAIMSASPGEKVTMTCSASSSVTYMHWYQQKSGTSPKRWIYDTSKLASGVPARFSGSGSGTSYSLTISSMEAEDAATYYCQQWSSNPPTFGGGTKLEIR
81.6	1.73	0.533	9110 (antibody, IgG1, V domains shown) VH: EVHLVESGGGLVQPKGSLKLSCAASGFTFNTYAMHWVRQAPGKGLEWVARIRNKSNNYATYYADSVKDRFTISRDDSQSMLFLQMDNLKTEDTAIYYCVRGGLSPFDYWGQGTTLTVSS VL: QIVLTQSPAIMSASPGEKVTMTCSASSSVTYMHWYQQKSGTSPKRWIYDTSKLASGVPARFSGSGSGTSYSLTISSMEAEDAATYYCQQWSSNPPTFGGGTKLEIR
62.7	1.91	1.02	9004 (antibody, IgG2b, V domains shown) VH: EVHLVESGGGLVQPKGSLKLSCAASGFTFNTYAMHWVRQAPGKGLEWVARIRSKSNNYATYYADSVKDRFTISRDDSQSMLYLQMNNLKTEDTAMYYCVRGGLSPFDYWGQGTTLTVSS VL: QIVLTQSPAIMSASPGEKVTMTCSASSSVTYMHWYQQKSGTSPKRWIYDTSKLASGVPARFSGSGSGTSYSLTISSMEAEDAATYYCQQWSSNPPTFGGGTKLEIR
81.7	1.87	0.478	9014 (antibody, IgG1, V domains shown) VH: EVQLVESGGGLVQPKGSLKLSCAASGFTFNTYAMHWVRQAPGKGLEWVARIRSESNNFATYYADSVKDSFTISRDDSQSMLYLQMNNLKTEDTAVYYCVRGGLSPFDYWGQGTTLTVSS VL: QIVLTQSPAIMSASPGEKVTMTCSASSSVSYMHWYQQKSGTSPKRWIYDTSKLASGVPARFSGSGSGTSYSLTINSMEAEDAATYYCQQWSRNPPTFGGGTKLEIK
81	1.82	0.507	9009 (antibody, IgG1, V domains shown) VH: EVQLVESGGGLVQPKGSLKLSCAASGFTFNTYAMHWVRQAPGKGLEWVARIRSESNNFATYYADSVKDSFTISRDDSQSMLYLQMNNLKTEDTAVYYCVRGGLSPFDYWGQGTTLTVSS VL: QIVLTQSPAIMSASPGEKVTMTCSASSSVSYMHWYQQKSGTSPKRWIYDTSKLASGVPARFSGSGSGTSYSLTINSMEAEDAATYYCQQWSRNPPTFGGGTKLEIK
82	1.94	0.565	9003 (antibody, IgG1, V domains shown) VH: EVQLVESGGGLVQPKGSLKLSCAASGFTFNTYAMHWVRQAPGKGLEWVARIRSESNNFATYYADSVKDSFTISRDDSQSMLYLQMNNLKTEDTAVYYCVRGGLSPFDYWGQGTTLTVSS VL: QIVLTQSPAIMSASPGEKVTMTCSASSSVSYMHWYQQKSGTSPKRWIYDTSKLASGVPARFSGSGSGTSYSLTINSMEAEDAATYYCQQWSRNPPTFGGGTKLEIK
